Tests used:
RBP4 [1] = target: T1, RBP4 (Homo sapiens, UniProt P02753); settings: ligand-induced conformational changes of human RBP4; cited from earlier work
RBP4 [2] = target: T1, RBP4; test: Isothermal titration calorimetry (ITC) of binder-RBP4 interaction; format: binding; parameters: Human His-tagged RBP4 (residues 19-201) in pPICZ-alpha-A vector; made in house; host or cells: Pichia pastoris KM71H (secreted); settings: presence (50 μM) and absence of A1120
Protocol: For the thermodynamic characterization of the interaction between RBP4 and rcSso7d- or FN3-based lipocalin-fold binding interaction partners, isothermal titration calorimetry (ITC) is conducted using an automated MicroCal PEAQ-ITC instrument (Malvern Instruments). The samples are centrifuged (17,000 g, 10 min, 20° C.) and filtered (0.1 μm Ultrafree-MC filter, Merck Millipore). RBP4 protein solution is applied to the sample cell and the respective binders are titrated with varying intervals. Different concentrations both for RBP4 and binders are used and in some experiments, binders are applied to the sample cell and RBP4 is titrated. The experiments are performed both in the presence and absence of the ligand A1120 or other ligands. Data analysis is performed with the MicroCal PEAQ-ITC analysis software.
For the thermodynamic characterization of the interaction between RBP4 and rcSso7d- or FN3-based lipocalin-fold binding interaction partners (in this case RBP4 binding interaction partners), isothermal titration calorimetry (ITC) was conducted using the PEAQ Isothermal Titration Calorimeter Automated (Malvern Panalytical). The samples were centrifuged (17000 g, 10 min, 20° C.) and dialysed against the same buffer (PBS). RBP4 protein solution was applied to the sample cell and the respective RBP4 binding interaction partners were titrated with varying intervals. Different concentrations both for RBP4 and RBP4 binding interaction partners were used. […] Data analysis was performed with the MicroCal PEAQ-ITC analysis software and the resulting data were fitted to a one-set-of-sites binding model. […] The signature plots show the thermodynamic parameters of the interaction between RBP4 and RS3. One representative experiment out of four independent experiments is shown. […] The integrated data were fitted to one-set-of-sites binding model to calculate the KD values in FIG. 18. Signature plots show the thermodynamic parameters of the interaction. One representative experiment out of four independent experiments is shown.

RBP4 [3] = target: T1, RBP4; test: Surface plasmon resonance (SPR), RBP4 immobilized on chip; format: binding; parameters: Human His-tagged RBP4 (residues 19-201) in pPICZ-alpha-A vector; made in house; host or cells: Pichia pastoris KM71H (secreted); settings: for dependence of affinity to RBP4 on the lipocalin-fold ligand A1120: SPR, presence (5 μM) and absence of A1120
Protocol: Surface plasmon resonance (SPR) is used to determine the affinity of the interaction between RBP4 and rcSso7d- or FN3-based lipocalin-fold binding interaction partners and is performed with BiacoreT200 (GE healthcare). The antigen (RBP4) is coated onto a chip and incubated with various concentrations of binder solution in PBS, followed by a dissociation phase in PBS only. All measurements are performed both in the presence and absence of A1120 or other ligands. Finally, kon, koff and Kd values are obtained by global fitting.
Surface plasmon resonance (SPR) was used to determine the affinity of the interaction between RBP4 and rcSso7d- or FN3-based lipocalin-fold binding interaction partners and was performed with BiacoreT200 (GE Healthcare). The antigen (RBP4) was coated onto a CM5 chip (GE Healthcare) and incubated with various concentrations of lipocalin-fold binding interaction partner solution in HBS-EP (GE Healthcare), followed by a dissociation phase in HBS-EP. […] Finally, Kd values (dissociation constants) were obtained by steady-state analysis. […] KD values were calculated by steady-state analysis (right diagram in A and C). One representative experiment out of four independent experiments is shown.

[4] = Analytical size exclusion chromatography (SEC) of RBP4 binding interaction partners; format: physicochemical; settings: PBS with 200 mM NaCl, 25° C.
Protocol: For analytical SEC analysis, a total amount of 25 μg rcSso7d or FN3 mutants in running buffer (PBS with 200 mM NaCl) is filtered through 0.1 μm Ultrafree-MC filter (Merck Millipore), applied to a Superdex 200 10/300 GL column (GE healthcare) connected to an HPLC prominence LC20 system (Shimadzu) and eluted with a flow rate of 0.75 mL/min at 25° C. In addition, multi-angle light scattering (MALS) is used for determining the molecular mass using WYATT Heleos Dawn8+ plus QELS, a refractive index detector RID-10A (Shimadzu) and a diode array detector SPD-M20A (Shimadzu).
For analytical SEC analysis, a total amount of 25 μg of RBP4 binding interaction partners in running buffer (PBS with 200 mM NaCl) was filtered through a 0.1 μm Ultrafree-MC filter (Merck Millipore), applied to a Superdex 200 10/300 GL column (GE healthcare) connected to an HPLC Prominence LC20 system (Shimadzu) and eluted with a flow rate of 0.75 mL/min at 25° C.

[5] = Differential scanning calorimetry (DSC) of RBP4 binding interaction partners; settings: 80 μM protein, 20-110° C.
Protocol: The stability of RBP4-binding interaction partners is evaluated by determining the melting temperature (Tm) by differential scanning calorimetry (DSC) using MicroCal VP-DSC capillary cell microcalorimeter (MicroCal). Briefly, 30 μM protein solution is exposed to an increasing temperature ranging from 20-110° C. with a heating rate of 1° C./min. Buffer baseline is subtracted and the resulting data are normalized for protein concentration, followed by fitting with a non-two-state thermal unfolding model.
The thermal stability of RBP4 binding interaction partners was evaluated by determining the melting temperature (Tm) by differential scanning calorimetry (DSC) using the PEAQ Differential Scanning Calorimeter Automated (Malvern Panalytical). Briefly, 80 μM protein solution was exposed to an increasing temperature ranging from 20-110° C. with a heating rate of 1° C./min. Buffer baseline was subtracted and the resulting data were normalized for protein concentration, followed by fitting with a non-two-state thermal unfolding model.

CC1=C(/C=C/C(C)=C/C=C/C(C)=C/C(=O)Nc2ccc(O)cc2)C(C)(C)CCC1 [Fenretinide, 15-[(4-hydroxyphenyl)amino]retinal]
effect of ligand on the RBP4-TTR interaction (RBP4 [1]): dissociation from TTR

CCNC(=O)/C=C(C)/C=C/C=C(C)/C=C/C1=C(C)CCCC1(C)C [N-Ethylretinamide]
effect of ligand on the RBP4-TTR interaction (RBP4 [1]): dissociation from TTR

CC1=C(/C=C/C(C)=C/C=C/C(C)=C/C(=O)O)C(C)(C)CCC1 [all-trans retinoic acid]
effect of ligand on the RBP4-TTR interaction (RBP4 [1]): dissociation from TTR

C/C=C(C)/C=C/C=C(C)/C=C/C1=C(C)CCCC1(C)C [axerophthene]
effect of ligand on the RBP4-TTR interaction (RBP4 [1]): dissociation from TTR

CC(=O)OC/C=C(C)/C=C/C=C(C)/C=C/C1=C(C)CCCC1(C)C [retinyl acetate]
effect of ligand on the RBP4-TTR interaction (RBP4 [1]): dissociation from TTR

B1: RF2: FN3-based lipocalin-fold binding interaction partner binding RBP4 in an A1120-dependent manner (protein)
chain: VSDVPRDLEVVAATPTSLLISWYYPNASHAGYYRITYGETGGNSPVQEFTVPFSIRYTIATISGLKPGVDYTITVYAVTDYAYYYRLSEPISINYRTEIDKPSQ
dependence of affinity to RBP4 on the lipocalin-fold ligand A1120 (RBP4 [2]): strongly depend on the presence of the lipocalin-fold ligand | dependence of affinity to RBP4 on the lipocalin-fold ligand A1120 (RBP4 [3]): strongly depend on the presence of the lipocalin-fold ligand | folding and oligomeric state (SEC analysis) [4]: well folded, monomeric proteins

B2: RS3: rcSso7d-based lipocalin-fold binding interaction partner binding RBP4 in an A1120-dependent manner (protein)
chain: ATVKLTYQGEEKQVDISKIKRVARYGQNIYFSYDEGGGAYDYGAVSEKDAPKELLQMLEKQ
dependence of affinity to RBP4 on the lipocalin-fold ligand A1120 (RBP4 [2]): strongly depend on the presence of the lipocalin-fold ligand | dependence of affinity to RBP4 on the lipocalin-fold ligand A1120 (RBP4 [3]): strongly depend on the presence of the lipocalin-fold ligand | SPR binding signal to RBP4 (RBP4 [3]; absence of A1120, same RS3 concentrations as used with 5 μM A1120): almost no signal | folding and oligomeric state (SEC analysis) [4]: well folded, monomeric proteins | thermal stability (DSC analysis) [5]: stable proteins

B3: RS5: rcSso7d-based lipocalin-fold binding interaction partner binding RBP4 in an A1120-dependent manner (protein)
chain: ATVKFTYQGEEKQVDISKIKRVARYGQGIYFDYGEGGGAWGYGSVSEEDAPKELLQMLEKQ
dependence of affinity to RBP4 on the lipocalin-fold ligand A1120 (RBP4 [2]): strongly depend on the presence of the lipocalin-fold ligand | dependence of affinity to RBP4 on the lipocalin-fold ligand A1120 (RBP4 [3]): strongly depend on the presence of the lipocalin-fold ligand | folding and oligomeric state (SEC analysis) [4]: well folded, monomeric proteins | thermal stability (DSC analysis) [5]: stable proteins

From patent US12102653B2, “Ligand regulated protein-protein interaction system” (ST. ANNA KINDERKREBSFORSCHUNG, priority 2017, dated 2024)
